Measurements reported in patent US20080317723A1, “LYMPHATIC ENDOTHELIAL CELLS MATERIALS AND METHODS” (VEGENICS LIMITED, priority 2001, published 2008).

B1: VEGF-C156S: VEGFR-3 specific mutant form of VEGF-C, cysteine 156 changed into serine; recombinant human (Thr103 to Ile225) (protein, UniProt P49767 103-225, looked up, variant C156S)
chain: TEETIKFAAAHYNTEILKSIDNEWRKTQCMPREVCIDVGKEFGVATNTFFKPPSVSVYRCGGCCNSEGLQCMNTSTSYLSKTLFEITVPLSQGPKPVTISFANHTSCRCMSKLDVYRQVHSII

Key:
Type in all cases: cell-based, human
Akt = Akt phosphorylation in HMVE cells, Western blot; conditions: for Akt phosphorylation at Ser473 on growth factor stimulation: HMVE cells; for time of maximal (peak) Akt phosphorylation after exposure: HMVEC, FIG. 4
Experimental: Western blot analysis. Endothelial cells were cultured on 35 mm dishes to near confluence, starved for 24 h in serum free medium and stimulated as indicated. Wortmannin ([…]), LY294002 ([…]), PD98059 (10-25 μM) or GF109203X (2.5-5 μM) were added 1-3 h before stimulation, where indicated. DMSO, into which the inhibitors were dissolved, was used as a control. After the stimulation, the cells were lysed in lysis buffer (50 mM HEPES, pH 7.5, 150 mM NaCl, 10 mM EDTA, 100 mM NaF, 1% TritonX-100 supplemented with 2 mM Na3VO4, 0.5 mM PMSF, 100 U/ml approtinin and 10 μg/ml leupeptin). Clarified lysates were separated by SDS-PAGE, transferred to nitrocellulose and immunoblotted using the phosphospecific antibodies for Akt-Ser473, Akt-Thr308, p42/44 MAPK-Thr202/Tyr204 or CREB-Ser133. The bound antibodies were detected using horseradish peroxidase conjugated secondary antibodies and enhanced chemiluminescence detection system. The blots were stripped and reprobed with antibodies against Akt, MAPK or CREB for quantification by reading the optical densities of the signals with Multi-Analyst 2.0.1 program (Bio-Rad).
As discussed in the background, a major signal transduction pathway by which growth factor receptors can promote cell survival employs the PI-3-kinase and its downstream target, the serine-threonine kinase Akt. The effect of the different VEGFs on Akt was analyzed by assessing Akt phosphorylation in serine 473 and threonine 308 using phosphospecific antibodies.

HMVE cells [1] = test: Annexin-V staining of serum-starved HMVE cells with podoplanin co-staining; conditions: 72 hours serum-free medium; podoplanin positive vs negative cells, FIG. 3
Experimental: FIG. 3. Quantitation of the Annexin-V positive cells (% of adherent cells) in the podoplanin positive and negative cell populations after 72 hours of serum starvation. Data represent mean values from five counted areas (×400) (mean±s.d.).
Analysis of endothelial cell apoptosis. For the apoptosis assay, 70,000 cells per well were seeded into 24-well plates. Treatments were done in duplicates and apoptosis was detected by measuring cytoplasmic histone-associated DNA fragments using the death detection ELISA PLUS kit (Roche, Indianapolis, Ind.). The following ranges of growth factor concentrations were tested: bFGF 10-20 ng/ml, PlGF-1 50-1000 ng/ml, VEGF 10-50 ng/ml, VEGF-C 50-1000 ng/ml, VEGF-D 50-1000 ng/ml, VEGF-C156S 50-1000 ng/ml and VEGF-E 50-1000 ng/ml. Annexin-V-FLUOS (Roche, Indianapolis, Ind.) was used to detect phosphatidylserine on the apoptotic cells by fluorescence microscopy according to the instructions of the manufacturer. The simultaneous staining with propidium iodide (1 μg/ml) was used for discriminating possible necrotic cells.
Annexin-V staining of the HMVE cells was performed after 72 hours of culture in serum-free medium alone (BSA) or with stimulation of VEGF or VEGF-C. Simultaneous staining using antibodies against podoplanin was used to distinguish lymphatic and blood vascular endothelial cells. […]

[2] = system: VEGFR-3 expressing lymphatic endothelial cells; test: Serum starvation-induced apoptosis, cytoplasmic mono- and oligonucleosomes, isolated VEGFR-3 positive cells; conditions: for cell survival during serum starvation: VEGFR-3 expressing cells, FIG. 2B
Description: FIG. 2A-FIG. 2B. VEGFR-2 and VEGFR-3, but not VEGFR-1 activating ligands inhibit apoptosis of serum-deprived HMVE cells. Measurement of the cytoplasmic histone-associated DNA fragments (mono- and oligonucleosomes) in serum-starved HMVE cells consisting of two cell populations of blood vascular and lymphatic endothelial cells (FIG. 2A) or in the isolated cell populations after magnetic cell sorting using VEGFR-3 antibodies (FIG. 2B). The enrichment factor of cytoplasmic oligonucleosomes in the apoptotic cells grown for 24 h in serum-free medium (BSA) was chosen as 100 (%). Data represent mean values from three independent experiments (mean±s.d.). […] Isolation of lymphatic and blood vascular endothelial cells. […] Analysis of endothelial cell apoptosis. For the apoptosis assay, 70,000 cells per well were seeded into 24-well plates. Treatments were done in duplicates and apoptosis was detected by measuring cytoplasmic histone-associated DNA fragments using the death detection ELISA PLUS kit (Roche, Indianapolis, Ind.). […] Annexin-V-FLUOS (Roche, Indianapolis, Ind.) was used to detect phosphatidylserine on the apoptotic cells by fluorescence microscopy according to the instructions of the manufacturer. The simultaneous staining with propidium iodide (1 μg/ml) was used for discriminating possible necrotic cells.

HMVE cells [3] = test: Boyden chamber cell migration assay; conditions: 6 h, VEGF 10 ng/ml, VEGF-C 500 ng/ml, VEGF-D 500 ng/ml, VEGF-C156S 3 μg/ml
Experimental: FIG. 5. VEGFR-3 mediates endothelial cell migration. The migration of HMVE cells in the presence of different VEGFs in a Boyden chamber assay. […] Data represent mean values from three independent experiments (mean±s.d.). The growth factor concentrations used are: VEGF 10 ng/ml, VEGF-C 500 ng/ml, VEGF-D 500 ng/ml and VEGF-C156S 3 μg/ml.
Cell migration assay. Migration assays were performed in a 48-well chemotaxis Boyden chamber (Neuroprobe Inc.). Eight micron Nucleopore polycarbonate filters (Corning) were coated with 100 μg/ml of collagen type I (Upstate Biotechnology) overnight at +4° C. and air dried. The filters were placed over the lower chamber wells containing the growth factors in serum-free growth medium supplemented with 0.2% BSA. For blocking experiments, VEGF and VEGF-C156S were preincubated with a ten-fold molar excess of soluble human VEGFR-3 for 30 min. HMVE cells were suspended in the growth medium and 10,000 cells in 50 μl were added to each well in the upper chamber. The cells were allowed to migrate for 6 h at 37° C. after which the filter was fixed with cold methanol and stained with hematoxylin (Meyer). Non-migrated cells on the upper surface of the filter were removed by scraping with a cotton swab and the number of migrated cells was counted. The assays were run in quadruplicate and repeated with three different batches of HMVECs.

[4] = serum-deprived lymphatic endothelial cells

Molecule | Akt phosphorylation at Ser473 on growth factor stimulation (Akt) | time of maximal (peak) Akt phosphorylation after exposure (Akt) [min] | Annexin-V positive cells / survival (HMVE cells [1]) | cell survival during serum starvation [2] | stimulation of HMVE cell migration (HMVE cells [3]) | accumulation of oligo- and mononucleosomes [2, 4] | concentration at which the maximum effect was achieved (inhibition of oligo- and mononucleosome accumulation) [2, 4] [ng/mL]
VEGF | phosphorylated at Ser473 | 20 to 30 | strongly decreased the number of cells displaying Annexin-V positivity | promoted cell survival | ten-fold stimulation of cell migration | – | –
B1 | phosphorylated at Ser473 | 30 to 40 | increased the survival of mainly the lymphatic endothelial cells | induced the survival of only the VEGFR-3 positive cells | induced the migration of HMVE cells | inhibited dose-dependently | 500
